T1: cynomolgus SIRP-α (cynomolgus monkey, UniProt Q5TFQ8 30-148 (human entry), limits assumed)
T1 construct: also called cyno1
T1 chain: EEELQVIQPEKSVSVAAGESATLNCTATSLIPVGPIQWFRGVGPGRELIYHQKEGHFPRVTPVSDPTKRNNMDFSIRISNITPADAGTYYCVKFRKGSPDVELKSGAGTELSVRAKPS

T2: mouse 129 SIRP-α (mouse (129 strain), UniProt P97797 32-150)
T2 construct: also called m129
T2 chain: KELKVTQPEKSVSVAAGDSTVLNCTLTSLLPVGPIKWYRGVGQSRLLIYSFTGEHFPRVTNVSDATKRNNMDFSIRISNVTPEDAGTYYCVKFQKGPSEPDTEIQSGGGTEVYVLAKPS

T3: BALBc mouse SIRP-α (mouse (BALB/c strain))
T3 chain: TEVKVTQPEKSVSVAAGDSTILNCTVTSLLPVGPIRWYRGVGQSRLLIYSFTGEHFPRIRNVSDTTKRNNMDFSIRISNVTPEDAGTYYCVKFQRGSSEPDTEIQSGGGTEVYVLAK


Legend:
cynomolgus SIRP-α [1] = target: T1, cynomolgus SIRP-α; experiment: SPR Koff +/-
Summary of the method: (§1)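 Apparent association and dissociation rate constants, and KD as kd/ka, were obtained by global fitting of double-referenced data to a simple Langmuir model. Measurements used a ProteOn XPR36 biosensor at 25° C in PBS pH 7.4 with 0.01% Tween-20, with SIRP analytes injected in one-shot kinetic mode at nominal concentrations from A280 absorbance. The purified antibodies were either amine-coupled to a GLC chip or held on an NLC chip by biotinylated Protein A.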

human SIRP-α v1 [2] = target: T4, human SIRP-α v1 (human, UniProt P78324 31-149); experiment: SPR
T4 construct: also called Human v1; Human V1
T4 sequence (P78324 31-149 limits assumed): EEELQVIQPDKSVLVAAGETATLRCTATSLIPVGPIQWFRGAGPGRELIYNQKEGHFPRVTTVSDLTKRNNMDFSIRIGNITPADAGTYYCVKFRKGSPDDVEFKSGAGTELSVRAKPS
Summary of the method: as §1

human SIRP-α v2 [3] = target: T5, human SIRP-α v2 (human); experiment: SPR
T5 construct: also called Human v2; Human V2
T5 sequence (chain, as listed by the source limits assumed): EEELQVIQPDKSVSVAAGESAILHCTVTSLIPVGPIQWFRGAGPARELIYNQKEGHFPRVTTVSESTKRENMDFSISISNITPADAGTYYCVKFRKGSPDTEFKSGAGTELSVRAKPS
Summary of the method: as §1

mouse 129 SIRP-α = target: T2, mouse 129 SIRP-α; experiment: SPR Koff +/-
Summary of the method: as §1

human SIRPγ isoform 1 [4] = target: T6, human SIRPγ isoform 1 (human, UniProt Q9P1W8 29-147); experiment: SPR Koff +/-
T6 construct: also called Gamma; Human SIRPg
T6 sequence (Q9P1W8 29-147 limits assumed): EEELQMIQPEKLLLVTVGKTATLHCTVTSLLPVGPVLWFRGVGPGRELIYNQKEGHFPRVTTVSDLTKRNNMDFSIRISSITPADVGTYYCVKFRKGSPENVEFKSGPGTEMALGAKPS
Summary of the method: as §1

human SIRP-α v1 [5] = target: T4, human SIRP-α v1; experiment: SPR; remark: listed apart in the source
Summary of the method: as §1

human SIRP-α v2 [6] = target: T5, human SIRP-α v2; experiment: SPR; remark: listed apart in the source
Summary of the method: as §1

cynomolgus SIRP-α [7] = target: T1, cynomolgus SIRP-α; experiment: SPR
Summary of the method: as §1

BALBc mouse SIRP-α = target: T3, BALBc mouse SIRP-α; experiment: SPR
Summary of the method: as §1

human SIRPγ isoform 1 [8] = target: T6, human SIRPγ isoform 1; experiment: SPR
Summary of the method: as §1

human SIRPβ isoform 1 = target: T7, human SIRPβ isoform 1 (human, UniProt O00241 30-148); experiment: SPR Koff +/-
T7 construct: also called Beta; Human SIRPb
T7 sequence (O00241 30-148 limits assumed): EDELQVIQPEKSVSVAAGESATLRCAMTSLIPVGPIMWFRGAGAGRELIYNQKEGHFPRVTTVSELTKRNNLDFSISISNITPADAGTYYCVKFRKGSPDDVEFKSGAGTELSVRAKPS
Summary of the method: as §1

binding result (cynomolgus SIRP-α [1])	Kd (human SIRP-α v1 [2]) [pM]	Kd (human SIRP-α v2 [3]) [pM]	binding result (mouse 129 SIRP-α)	binding result (human SIRPγ isoform 1 [4])	koff (human SIRP-α v1 [5]) [s⁻¹]	koff (human SIRP-α v2 [6]) [s⁻¹]	koff (cynomolgus SIRP-α [7]) [s⁻¹]	koff (BALBc mouse SIRP-α) [s⁻¹]	koff (human SIRPγ isoform 1 [8]) [s⁻¹]	binding result (human SIRPβ isoform 1)	Binder
no binding	–	–	–	–	–	–	–	–	–	–	antibody 45 (antibody, V domains shown, also called S45; AB45) VH: AVTLDESGGGLQTPGGALSLVCKASGFTFSSYAMGWVRQAPGKGLEWVAGIDDDGSTANYGPAVKGRATISRDNGQSTVRLQLNNPRAEDSGTYFCAKASVTGWSAHISGRLDTWGHGTEVIVSS VL: ALTQPASVSANPGETVKITCSGGGIYYYGWYQQKSPGSAPVTLIYENDKRPSDIPSRFSGSTSGSTNTFTITGVQAEDEAVYYCGGYDSNTTSGIFGAGTTLTVL
–	873	238	no binding	no binding	–	–	–	–	–	–	antibody 149 (antibody, V domains shown, also called S149) VH: DVQLVESGGGVVRPGESLRLSCAASGFTFSNFAMNWVRQAPGEGLEWVSLISVTATTYYADSVKGRFTISRDNSKNTLYLQMNSLRAEDTAVYYCAKVTWNNLFDYWGLGTLVTVSS VL: EIVLTQSPGTLSLSPGERATLSCRASQPIDSYLAWYQQKPGQAPRLLIYNTVTRATGIPDRFSGSGSGTDFTLTINRLEPEDFAVYYCQHQYDWPPYIFGGGTKVEIK
–	< 1	–	–	–	0.000949	0.00281	0.00269	0.00346	0.000997	–	antibody 66 (antibody, V domains shown, also called AB66; S66) VH: DVQLVESGGGVVRPGESLRLSCAASGFTFSSYAMSWVRQAPGKGLEWLAGISAGGSDTYYIDSVKGRFTISRDNPKNSLYLQMSSLTAEDTAVYYCARETWNHLFDYWGLGTLVTVSS VL: ALTQPASVSANPGETVKITCSGGDYYSTYYAWYQQKSPGSAPVTVIHSDDKRPSDIPSRFSGSASGSAATLIITGVRVEDEAVYYCGGYDGRTYINTFGAGTTLTVL
–	< 1	< 1	–	–	0.000707	0.00192	0.00229	0.00241	0.000902	–	antibody 21 (antibody, V domains shown, also called AB21; S21) VH: DVQLVESGGGVVRPGESLRLSCAASGFTFSSNAMSWVRQAPGKGLEWLAGISAGGSDTYYPASVKGRFTISRDNSKNTLYLQMNTLTAEDTAVYYCARETWNHLFDYWGLGTLVTVSS VL: ALTQPASVSANPGETVKIACSGGDYYSYYYGWYQQKAPGSALVTVIYSDDKRPSDIPSRFSGSASGSTATLTITGVRAEDEAVYYCGGYDYSTYANAFGAGTTLTVL
binds	774	3140	binds	–	–	–	–	–	–	binds	antibody 137 (antibody, V domains shown, also called S137) VH: not shown VL: ETVLTQSPGTLTLSPGERATLTCRASQSVYTYLAWYQEKPGQAPRLLIYGASSRATGIPDRFSGSGSGTVFTLTISSLQSEDFAVYYCQQYYDRPPLTFGGGTKVEIK
–	21.5	–	–	–	0.000315	0.000579	0.000683	0.005	0.000407	–	antibody 27 (antibody, V domains shown, also called AB27; S27) VH: DVQLVESGGGVVRPGESLRLSCAVSGFRFSSYAMSWVRQAPGKGLEWVSGISSGGDTYYVDSVKGRFTISRDNSKNTLYLQVNSLTAEDTAIYYCARETWNHLFDYWGLGTLVTVSS VL: ALTQPASVSADLGETVKITCSGGDSSSHYYGWYQQKSPGSAPVTVIYSDDERPSDIPSRFSGSASGSTATLTITGVRVEDEAIYYCGAYDGSTYANTFGAGTTLTVL
–	< 1	< 1	–	–	0.000165	0.000353	0.000394	0.00178	0.000203	–	antibody 25 (antibody, V domains shown, also called AB25; S25) VH: DVQLVESGGGVVRPGESLRLSCEASGFTFSSNAMSWVRQAPGKGLEWVAGISSGSDTYYGDSVKGRLTISRDNSKNILYLQMNSLTAEDTAVYYCARETWNHLFDYWGLGTLVTVSS VL: ALTQPASVSANPGETVEITCSGGSYSSYYYAWYQQKSPGSAPVTLIYSDDKRPSNIPSRFSGSASGSTATLTITGVRAEDEAVYFCGGYDQSSYTNPFGAGTTLTVL

Further lines, the binder ahead of its results:

Binder	binding result (cynomolgus SIRP-α [1])	Kd (human SIRP-α v1 [2]) [pM]	Kd (human SIRP-α v2 [3]) [pM]	binding result (mouse 129 SIRP-α)	binding result (human SIRPγ isoform 1 [4])	koff (human SIRP-α v1 [5]) [s⁻¹]	koff (human SIRP-α v2 [6]) [s⁻¹]	koff (cynomolgus SIRP-α [7]) [s⁻¹]	koff (BALBc mouse SIRP-α) [s⁻¹]	koff (human SIRPγ isoform 1 [8]) [s⁻¹]	binding result (human SIRPβ isoform 1)
Hum1/AB21_HC_wt (antibody, V domains shown) VH: DVQLVESGGGVVRPGESLRLSCAASGFTFSSNAMSWVRQAPGKGLEWLAGISAGGSDTYYPASVKGRFTISRDNSKNTLYLQMNTLTAEDTAVYYCARETWNHLFDYWGLGTLVTVSS VL: SYELTQPPSVSVSPGQTARITCSGGSYSSYYYAWYQQKPGQAPVTLIYSDDKRPSNIPERFSGSSSGTTVTLTISGVQAEDEADYYCGGYDQSSYTNPFGGGTKLTVL	–	–	–	–	–	0.000193	0.000303	0.000395	0.00291	0.000188	–
Hum3/AB66_HC_wt (antibody, V domains shown) VH: DVQLVESGGGVVRPGESLRLSCAASGFTFSSYAMSWVRQAPGKGLEWLAGISAGGSDTYYIDSVKGRFTISRDNPKNSLYLQMSSLTAEDTAVYYCARETWNHLFDYWGLGTLVTVSS VL: SYELTQPPSVSVSPGQTARITCSGGDYYSTYYAWYQQKPGQAPVTVIHSDDKRPSDIPERFSGSSSGTTVTLTISGVQAEDEADYYCGGYDGRTYINTFGGGTKLTVL	–	–	–	–	–	0.000124	0.000287	0.000306	0.00205	0.000135	–
Hum1/AB25_HC_wt (antibody, V domains shown) VH: DVQLVESGGGVVRPGESLRLSCEASGFTFSSNAMSWVRQAPGKGLEWVAGISSGSDTYYGDSVKGRLTISRDNSKNILYLQMNSLTAEDTAVYYCARETWNHLFDYWGLGTLVTVSS VL: SYELTQPPSVSVSPGQTARITCSGGSYSSYYYAWYQQKPGQAPVTLIYSDDKRPSNIPERFSGSSSGTTVTLTISGVQAEDEADYYCGGYDQSSYTNPFGGGTKLTVL	–	–	–	–	–	0.000133	0.000267	0.00033	0.00374	0.000203	–
Hum1/AB66_HC_wt (antibody, V domains shown) VH: DVQLVESGGGVVRPGESLRLSCAASGFTFSSYAMSWVRQAPGKGLEWLAGISAGGSDTYYIDSVKGRFTISRDNPKNSLYLQMSSLTAEDTAVYYCARETWNHLFDYWGLGTLVTVSS VL: SYELTQPPSVSVSPGQTARITCSGGSYSSYYYAWYQQKPGQAPVTLIYSDDKRPSNIPERFSGSSSGTTVTLTISGVQAEDEADYYCGGYDQSSYTNPFGGGTKLTVL	–	–	–	–	–	0.000124	0.000239	0.000303	0.00246	0.000136	–
Hum1/AB27_HC_wt (antibody, V domains shown) VH: DVQLVESGGGVVRPGESLRLSCAVSGFRFSSYAMSWVRQAPGKGLEWVSGISSGGDTYYVDSVKGRFTISRDNSKNTLYLQVNSLTAEDTAIYYCARETWNHLFDYWGLGTLVTVSS VL: SYELTQPPSVSVSPGQTARITCSGGSYSSYYYAWYQQKPGQAPVTLIYSDDKRPSNIPERFSGSSSGTTVTLTISGVQAEDEADYYCGGYDQSSYTNPFGGGTKLTVL	–	–	–	–	–	0.000192	0.000292	0.000379	0.0037	0.000178	–
Hum3/AB25_HC_wt (antibody, V domains shown) VH: DVQLVESGGGVVRPGESLRLSCEASGFTFSSNAMSWVRQAPGKGLEWVAGISSGSDTYYGDSVKGRLTISRDNSKNILYLQMNSLTAEDTAVYYCARETWNHLFDYWGLGTLVTVSS VL: SYELTQPPSVSVSPGQTARITCSGGDYYSTYYAWYQQKPGQAPVTVIHSDDKRPSDIPERFSGSSSGTTVTLTISGVQAEDEADYYCGGYDGRTYINTFGGGTKLTVL	–	–	–	–	–	5.94e-05	0.000353	0.000375	0.000227	0.000169	–
Hum3/AB21_HC_wt (antibody, V domains shown) VH: DVQLVESGGGVVRPGESLRLSCAASGFTFSSNAMSWVRQAPGKGLEWLAGISAGGSDTYYPASVKGRFTISRDNSKNTLYLQMNTLTAEDTAVYYCARETWNHLFDYWGLGTLVTVSS VL: SYELTQPPSVSVSPGQTARITCSGGDYYSTYYAWYQQKPGQAPVTVIHSDDKRPSDIPERFSGSSSGTTVTLTISGVQAEDEADYYCGGYDGRTYINTFGGGTKLTVL	–	–	–	–	–	0.000137	0.000438	0.000432	0.00231	0.00021	–
Hum3/AB27_HC_wt (antibody, V domains shown) VH: DVQLVESGGGVVRPGESLRLSCAVSGFRFSSYAMSWVRQAPGKGLEWVSGISSGGDTYYVDSVKGRFTISRDNSKNTLYLQVNSLTAEDTAIYYCARETWNHLFDYWGLGTLVTVSS VL: SYELTQPPSVSVSPGQTARITCSGGDYYSTYYAWYQQKPGQAPVTVIHSDDKRPSDIPERFSGSSSGTTVTLTISGVQAEDEADYYCGGYDGRTYINTFGGGTKLTVL	–	–	–	–	–	0.000216	0.000396	0.000464	0.000202	0.000207	–

From US20210363269A1 (ALX ONCOLOGY, published 2021)
